The text below walks through data of patent publication US20040072293A1, “Novel physiologically active peptide and use thereof” (priority 2001, published 2004).

Assay [1] deals with T1, the protein of the invention (ZAQ) (Homo sapiens, UniProt Q8TCW9).
T1 construct: expressed in transfected cells
Briefly: activation of the protein of the invention and intracellular Ca ion concentration in cells expressing it. In kind it is cell-based.

In assay [2] the test system is ileum or distal colon. The following applies: cited from earlier work.
For assay [3], the system named is proximal colon. The following applies: cited from earlier work.

T1 sequence (Q8TCW9 whole entry): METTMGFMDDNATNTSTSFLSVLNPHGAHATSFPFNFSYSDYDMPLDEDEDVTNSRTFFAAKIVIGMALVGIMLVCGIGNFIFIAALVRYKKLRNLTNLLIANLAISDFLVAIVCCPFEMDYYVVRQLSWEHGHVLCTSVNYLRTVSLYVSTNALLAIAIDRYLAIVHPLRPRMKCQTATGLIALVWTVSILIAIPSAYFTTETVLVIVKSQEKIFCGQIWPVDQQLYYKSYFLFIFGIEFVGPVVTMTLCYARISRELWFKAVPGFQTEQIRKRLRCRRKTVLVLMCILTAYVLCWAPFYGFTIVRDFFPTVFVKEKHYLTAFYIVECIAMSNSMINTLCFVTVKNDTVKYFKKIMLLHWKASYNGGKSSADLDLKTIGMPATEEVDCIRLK

B1: MIT1 (protein, listed as Dendroaspip polylepis)
chain: AVITGACERDLQCGKGTCCAVSLWIKSVRVCTPVGTSGEDCHPASHKIPFSGQRMHHTCPCAPNLACVQTSPKKFKCLSK
For B1, in assay [1], the “activation of the protein of the invention” value was “activated the protein of the invention”. The “intracellular Ca ion concentration” value in assay [1] (cells in which the protein of the invention was expressed) is “increased intracellular Ca ion concentration”. Further, the “contraction in the ileum or distal colon” value in assay [2] was “induced contraction in the ileum or distal colon”. The “degree of contraction/relaxation compared with potassium chloride” value in assay [2] (ileum, distal colon (contraction) and proximal colon (relaxation), comparator 40 mM potassium chloride) is reported as “as potent as comparable to 40 mM potassium chloride”. For the same molecule, the “relaxation in the proximal colon” value in assay [3] is reported as “relaxation in the proximal colon”.
